Experimental findings from PMC8523169, “Competitive binding of MatP and topoisomerase IV to the MukB hinge domain” are described below.

One data set concerns the target T1, MatP (MatPΔ18C) (Escherichia coli, UniProt P0A8N0 1-132).
T1 sequence: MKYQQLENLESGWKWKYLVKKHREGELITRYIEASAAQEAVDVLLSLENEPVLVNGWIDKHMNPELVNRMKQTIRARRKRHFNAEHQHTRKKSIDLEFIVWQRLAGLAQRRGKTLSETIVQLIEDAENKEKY
The experiment in a line: native MS; Native PAGE: 50 mM HEPES pH 7.5, 100 mM NaCl, 1 mM MgCl2, 1 mM DTT, 10% glycerol, on ice 30 min; FCS: 20 mM Tris-HCl pH 7.5, 50 mM NaCl, 0.3 mg/mL BSA, 2 mM DTT, 0.05% Tween-20, 22 °C; nMS buffer not given in the material. The conditions noted are these: protein: recombinant; tags: C-terminal 6xHis; chain copies: 2; blunt.

For a further data set, the target named is T2, MatP4E (Escherichia coli, UniProt P0A8N0 1-132, K71E;Q72E;R75E;R77E).
T2 sequence: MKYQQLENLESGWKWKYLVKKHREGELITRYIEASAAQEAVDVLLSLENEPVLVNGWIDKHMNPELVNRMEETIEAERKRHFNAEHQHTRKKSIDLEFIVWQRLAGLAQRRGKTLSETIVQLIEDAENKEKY
The experiment in a line: EMSA (native PAGE); 1 mM Mg2+; Native PAGE: 50 mM HEPES pH 7.5, 100 mM NaCl, 1 mM MgCl2, 1 mM DTT, 10% glycerol, on ice 30 min; FCS: 20 mM Tris-HCl pH 7.5, 50 mM NaCl, 0.3 mg/mL BSA, 2 mM DTT, 0.05% Tween-20, 22 °C; nMS buffer not given in the material. The conditions noted are these: protein: recombinant; tags: C-terminal 6xHis; chain copies: 2; blunt.

B1: 50 bp matS DNA (dsDNA)
DNA 1: CAGAGTTAATCAGAACGGTGACAATGTCACAAAGAAAAAGAACCTGTGCG
DNA 2: CGCACAGGTTCTTTTTCTTTGTGACATTGTCACCGTTCTGATTAACTCTG
For the molecule B1, the binding result is “binds” in the data set with MatP (MatPΔ18C) and “no binding” in the data set with MatP4E.

B2: 50 bp nonspecific DNA (dsDNA)
DNA 1: CAGAGTTAATCACAACGGTTCTCGATCATCAAAGAAAAACAAGCTGTGCG
DNA 2: CGCACAGCTTGTTTTTCTTTGATGATCGAGAACCGTTGTGATTAACTCTG
On to B2, for which, in the data set with MatP4E, the binding result was “no binding”.
